This is an account of results in patent US20240010748A1.

The target of test [1] is human Claudin 18.2 (hCLDN18.2) on stably-transfected HEK293 cells (human) (UniProt P56856). In words: FACS on HEK293-hCLDN18.2 cells.
Test [2] concerns the target human CD3 (hCD3) naturally expressed on Jurkat cells (human) (UniProt P07766). In words: FACS on Jurkat cells.
Test [3] has the same target. In words: cell-based or functional assay.
Test [4] addresses Cynomolgus macaques Claudin 18 (cynoCLDN18) on stably-transfected HEK293 cells (Cynomolgus macaques). In words: FACS on HEK293-cynoCLDN18 cells.
The target of test [5] is murine Claudin 18.2 (mCLDN18.2) on stably-transfected HEK293 cells (murine) (UniProt P56857). In words: FACS on HEK293-mCLDN18.2 cells.

human CD3 (hCD3) naturally expressed on Jurkat cells (human), sequence (P07766 23-207): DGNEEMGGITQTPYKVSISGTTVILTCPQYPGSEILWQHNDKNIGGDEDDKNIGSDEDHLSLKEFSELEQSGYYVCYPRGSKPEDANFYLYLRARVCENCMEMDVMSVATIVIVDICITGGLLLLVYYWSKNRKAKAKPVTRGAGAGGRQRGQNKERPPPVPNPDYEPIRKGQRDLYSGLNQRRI
human Claudin 18.2 (hCLDN18.2) on stably-transfected HEK293 cells (human), sequence (P56856 other isoform, or with tags, fused parts or gaps limits assumed): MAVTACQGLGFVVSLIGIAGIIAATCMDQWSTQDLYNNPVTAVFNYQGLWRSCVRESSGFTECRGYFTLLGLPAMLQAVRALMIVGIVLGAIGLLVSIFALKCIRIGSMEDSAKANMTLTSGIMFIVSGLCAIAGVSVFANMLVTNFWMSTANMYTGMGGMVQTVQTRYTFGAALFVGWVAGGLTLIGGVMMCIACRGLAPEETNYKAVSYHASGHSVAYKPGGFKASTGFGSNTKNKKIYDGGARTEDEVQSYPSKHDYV

For the substance Negative-IgG1AA (antibody), the Top mean fluorescence intensity (Top MFI) is 359 MFI in test [1] and 110 MFI in test [2]. The substance also returned a Jurkat-NFAT luciferase reporter, Fluorescence value (Max) in test [3] of 0. Further, the MFI (Max) in test [4] came to 136 MFI; in test [5], 75 MFI.
